Measured values from patent US20220169722A1 (WUXI BIOLOGICS IRELAND, published 2022).
Read-outs that look alike come from different tables or passages of the source.

Experiments:
[1] = target: T1, human LAG-3 on transfected cells (human, UniProt P18627 23-525); assay: FACS affinity on transfected cells
T1 construct: whole, on cells; Flp-In-293 or CHO-K1 cells transfected with full length human LAG-3; also called cell surface human LAG-3
T1 sequence (looked up): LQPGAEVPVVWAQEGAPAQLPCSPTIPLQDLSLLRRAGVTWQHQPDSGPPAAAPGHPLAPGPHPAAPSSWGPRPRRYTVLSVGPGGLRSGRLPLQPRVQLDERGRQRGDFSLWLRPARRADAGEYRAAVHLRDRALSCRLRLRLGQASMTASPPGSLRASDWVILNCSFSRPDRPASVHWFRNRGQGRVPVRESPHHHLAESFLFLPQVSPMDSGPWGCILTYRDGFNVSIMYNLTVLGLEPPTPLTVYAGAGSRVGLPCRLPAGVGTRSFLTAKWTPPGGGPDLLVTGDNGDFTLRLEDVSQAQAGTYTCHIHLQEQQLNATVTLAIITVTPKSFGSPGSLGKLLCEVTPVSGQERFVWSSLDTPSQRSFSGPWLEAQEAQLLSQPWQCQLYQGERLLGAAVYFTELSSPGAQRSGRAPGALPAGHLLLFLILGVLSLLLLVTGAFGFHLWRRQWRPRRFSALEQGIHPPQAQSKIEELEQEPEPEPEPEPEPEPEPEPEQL

[2] = target: T2, mouse LAG-3 on transfected cells (mouse, UniProt Q61790 24-521); assay: FACS affinity on transfected cells
T2 construct: whole, on cells; Flp-In-CHO cells transfected with mouse LAG-3; also called cell surface mouse LAG-3; murine LAG-3
T2 sequence (looked up): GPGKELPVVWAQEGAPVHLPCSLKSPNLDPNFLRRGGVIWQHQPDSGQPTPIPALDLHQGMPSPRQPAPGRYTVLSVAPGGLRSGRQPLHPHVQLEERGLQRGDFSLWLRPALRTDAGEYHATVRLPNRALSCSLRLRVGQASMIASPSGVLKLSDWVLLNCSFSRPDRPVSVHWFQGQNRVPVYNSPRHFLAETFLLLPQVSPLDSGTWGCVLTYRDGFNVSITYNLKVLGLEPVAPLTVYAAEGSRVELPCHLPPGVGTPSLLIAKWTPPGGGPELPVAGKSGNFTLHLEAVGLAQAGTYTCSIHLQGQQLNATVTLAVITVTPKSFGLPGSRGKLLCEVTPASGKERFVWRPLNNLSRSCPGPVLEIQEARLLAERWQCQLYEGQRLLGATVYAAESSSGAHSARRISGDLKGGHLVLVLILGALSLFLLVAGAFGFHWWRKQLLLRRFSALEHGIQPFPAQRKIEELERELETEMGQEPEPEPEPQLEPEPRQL

[3] = target: T3, cynomolgus LAG-3 on transfected cells (cynomolgus monkey); assay: FACS affinity on transfected cells
T3 construct: whole, on cells; 293F cells transfected with cynomolgus LAG-3; also called cell surface cynomolgus LAG-3; monkey LAG-3

[4] = target: T4, mouse Fc (mFc)-tagged human LAG-3 (human, UniProt P18627 23-450); assay: FACS blocking: antibody pre-mixed with mFc-tagged human LAG-3, added to Raji cells; blocked ligand: human MHC-II on Raji cells; detection goat anti-mouse IgG Fc-PE
T4 construct: extracellular domain
T4 sequence (looked up): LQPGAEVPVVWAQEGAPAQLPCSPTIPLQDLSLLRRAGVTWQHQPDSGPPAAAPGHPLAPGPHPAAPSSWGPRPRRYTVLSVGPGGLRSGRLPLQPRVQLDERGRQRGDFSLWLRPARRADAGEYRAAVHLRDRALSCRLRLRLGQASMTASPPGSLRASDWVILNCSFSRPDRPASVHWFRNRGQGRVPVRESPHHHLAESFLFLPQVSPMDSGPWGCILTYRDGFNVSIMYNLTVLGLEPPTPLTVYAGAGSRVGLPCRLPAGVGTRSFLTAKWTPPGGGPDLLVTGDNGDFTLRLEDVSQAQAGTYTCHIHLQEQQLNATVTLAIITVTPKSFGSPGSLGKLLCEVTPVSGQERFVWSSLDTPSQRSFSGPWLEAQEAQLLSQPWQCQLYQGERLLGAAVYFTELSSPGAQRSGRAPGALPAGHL
Procedure: (§1) The mixture was transferred into the 96-well plates seeded with Raji cells. Goat anti-mouse IgG Fc-PE antibody was used to detect the binding of LAG-3 protein to Raji cells. The mean fluorescence intensity (MFI) was evaluated by flow cytometry and analyzed by FlowJo.

human CD4 = human CD4 (human, UniProt P01730 26-390, limits assumed); assay: ELISA, plates coated with human CD4, goat anti-human IgG Fc-HRP
Procedure: Cross-reactivity to human CD4 was measured by ELISA. Plates were coated with human CD4 at 1 μg/ml overnight at 4° C. After blocking and washing, 1 μg/ml of LAG-3 antibodies were added to the plates and incubated at room temperature for 1 h. The plates were then washed and subsequently incubated with goat-anti human IgG Fc-HRP for 45 min. After washing, TMB substrate was added and the color reaction was stopped by 2M HCl. The absorbance at 450 nm was read using a microplate reader.

[5] = target: T1, human LAG-3 on transfected cells; assay: FACS, serial dilutions on human LAG-3 transfected cells, PE-labeled secondary antibody
[6] = target: T4, mouse Fc (mFc)-tagged human LAG-3; assay: ELISA blocking: antibody pre-mixed with mFc-tagged human LAG-3, added to plates coated with human LSECtin (blocked ligand); detection goat anti-mouse IgG Fc-HRP
Procedure: (§2) 96-well plates were coated with human LSECtin or Galectin-3 at 0.5 μg/ml overnight at 4° C., respectively. […] After blocking and washing, the mixture was transferred to the plates and incubated at room temperature for 1 h. The plates were then washed and subsequently incubated with the secondary antibody goat-anti Mouse IgG Fc-HRP for 1 h. After washing, TMB substrate was added and the color reaction was stopped by 2M HCl. The absorbance at 450 nm was read using a microplate reader.

[7] = target: T1, human LAG-3 on transfected cells; assay: FACS on human LAG-3 transfected cells with serum-treated antibody, PE-labeled goat anti-human IgG
Procedure: On indicated time points (day 0, day 1, day 4, day 7 and day 14), an aliquot of serum treated sample were removed from the incubator and snap frozen in liquid N2, and then stored at −80° C. until ready for test. All the samples were quickly thawed prior to the stability test. […] MFI of the cells was measured by a flow cytometry and analyzed by FlowJo.

[8] = target: T4, mouse Fc (mFc)-tagged human LAG-3; assay: FACS blocking: antibody pre-mixed with mFc-tagged human LAG-3; blocked ligand: cell surface human MHC-II (paragraph 254 says 'on A20 cells' for this figure); the column head on the sheet reads 'EC50 (nM)', the text calls the value IC50
Procedure: as §1

[9] = target: T5, human LAG-3 protein (SPR analyte) (human, UniProt P18627 23-450); assay: SPR Biacore 8K, Ab captured on anti-human Fc, LAG-3 as analyte
T5 construct: extracellular domain
T5 sequence (looked up): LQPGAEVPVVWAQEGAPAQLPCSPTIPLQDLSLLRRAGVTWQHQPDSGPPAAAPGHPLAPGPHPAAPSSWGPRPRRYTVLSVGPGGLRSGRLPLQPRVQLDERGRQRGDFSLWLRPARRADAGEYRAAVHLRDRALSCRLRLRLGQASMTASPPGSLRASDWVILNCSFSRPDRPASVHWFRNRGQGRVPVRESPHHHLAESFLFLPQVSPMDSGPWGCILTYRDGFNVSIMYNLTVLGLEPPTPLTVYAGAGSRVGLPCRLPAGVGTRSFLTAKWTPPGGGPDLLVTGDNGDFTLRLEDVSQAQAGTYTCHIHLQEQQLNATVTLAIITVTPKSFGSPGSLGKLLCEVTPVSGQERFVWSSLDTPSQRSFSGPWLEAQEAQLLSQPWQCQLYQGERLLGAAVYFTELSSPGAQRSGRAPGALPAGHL

[10] = target: T6, mouse LAG-3 protein (SPR analyte) (mouse, UniProt Q61790 24-442); assay: as above
T6 construct: extracellular domain
T6 sequence (looked up): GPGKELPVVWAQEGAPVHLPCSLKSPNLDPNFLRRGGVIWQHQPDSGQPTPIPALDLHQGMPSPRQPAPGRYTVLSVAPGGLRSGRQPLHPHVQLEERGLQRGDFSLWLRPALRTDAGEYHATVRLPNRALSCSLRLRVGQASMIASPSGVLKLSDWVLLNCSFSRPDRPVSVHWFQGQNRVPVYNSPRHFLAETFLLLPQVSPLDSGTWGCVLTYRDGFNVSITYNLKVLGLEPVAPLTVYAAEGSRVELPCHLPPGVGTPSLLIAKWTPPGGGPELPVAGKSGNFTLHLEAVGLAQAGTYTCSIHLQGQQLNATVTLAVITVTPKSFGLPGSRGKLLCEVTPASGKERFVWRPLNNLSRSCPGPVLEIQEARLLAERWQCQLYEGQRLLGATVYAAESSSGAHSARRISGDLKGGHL

[11] = target: T4, mouse Fc (mFc)-tagged human LAG-3; assay: ELISA blocking: antibody pre-mixed with mFc-tagged human LAG-3, added to plates coated with human LSECtin (blocked ligand); detection goat anti-mouse IgG Fc-HRP; remark: listed apart in the source
Procedure: as §2

[12] = target: T4, mouse Fc (mFc)-tagged human LAG-3; assay: ELISA blocking: antibody pre-mixed with mFc-tagged human LAG-3, added to plates coated with human Galectin-3 (blocked ligand); detection goat anti-mouse IgG Fc-HRP
Procedure: as §2

mFc-tagged mouse LAG-3 = target: T7, mFc-tagged mouse LAG-3 (mouse, UniProt Q61790 24-442); assay: FACS competition; blocks mFc-mouse LAG-3 binding to MHC-II on A20 cells
T7 construct: extracellular domain; also called mFc-tagged mouse protein
T7 sequence (looked up): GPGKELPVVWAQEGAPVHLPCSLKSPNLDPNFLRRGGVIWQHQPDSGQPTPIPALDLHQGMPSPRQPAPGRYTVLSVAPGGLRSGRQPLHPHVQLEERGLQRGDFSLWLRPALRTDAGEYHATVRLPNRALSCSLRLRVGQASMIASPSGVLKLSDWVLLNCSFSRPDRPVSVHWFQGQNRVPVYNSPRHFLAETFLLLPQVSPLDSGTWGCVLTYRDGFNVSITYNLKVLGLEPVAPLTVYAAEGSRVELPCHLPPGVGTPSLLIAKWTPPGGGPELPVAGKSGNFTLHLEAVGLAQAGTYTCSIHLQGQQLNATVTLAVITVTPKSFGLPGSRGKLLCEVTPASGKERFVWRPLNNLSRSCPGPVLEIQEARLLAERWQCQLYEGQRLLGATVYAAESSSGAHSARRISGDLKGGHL

[13] = target: T4, mouse Fc (mFc)-tagged human LAG-3; assay: ELISA blocking: antibody pre-mixed with mFc-tagged human LAG-3, added to plates coated with human Galectin-3 (blocked ligand); detection goat anti-mouse IgG Fc-HRP; remark: listed apart in the source
Procedure: as §2

[14] = target: T1, human LAG-3 on transfected cells; assay: FACS affinity on transfected cells; remark: listed apart in the source
[15] = target: T3, cynomolgus LAG-3 on transfected cells; assay: FACS affinity on transfected cells; remark: listed apart in the source
[16] = target: T5, human LAG-3 protein (SPR analyte); assay: SPR Biacore 8K, Ab as ligand, LAG-3 as analyte
[17] = target: T6, mouse LAG-3 protein (SPR analyte); assay: SPR Biacore 8K, Ab as ligand, LAG-3 as analyte
[18] = target: T3, cynomolgus LAG-3 on transfected cells; assay: FACS, serial dilutions on cynomolgus LAG-3 transfected cells, PE-labeled secondary antibody
Procedure: (§3) Similarly, cross-reactivity to cynomolgus or murine LAG-3 was tested by FACS with cyno or murine LAG-3 transfected cell lines.

[19] = target: T2, mouse LAG-3 on transfected cells; assay: FACS on mouse LAG-3 transfected cells
Procedure: as §3

[20] = target: T3, cynomolgus LAG-3 on transfected cells; assay: FACS on cynomolgus LAG-3 transfected cells
Procedure: as §3

B1: W3396-R2-1 (Fc fusion)
VHH: QVQLVESGGGVVQPGGSLRLSCAASGLTLSQYTMGWFRQAPGKERELVAAIHWTSSVTDYADSVYGRFTISRDDSKNTGYLQMNSLRAEDTAVYYCAATWYYTHRGSFDYWGQGTLVTVSS
Bmax [1]: 250 pM | Kd [1]: 810 pM | Bmax [2]: 57 pM | Kd [2]: 57 pM | Bmax [3]: 280 pM | Kd [3]: 3300 pM | IC50 [4]: 840 pM | binding result (human CD4): no binding (tested: 66.7 nM) | EC50 [5]: 364 pM | IC50 [6]: 642 pM | EC50 (read off the curve) [7]: ~100 pM | IC50 [8]: 1780 pM | Kd [9]: 162 pM | koff [9]: 2.7e-05 s⁻¹ | kon [9]: 166000 M⁻¹ s⁻¹ | Kd [10]: < 1.22 pM | koff [10]: < 1e-06 s⁻¹ | kon [10]: 819000 M⁻¹ s⁻¹ | IC50 [11]: 1810 pM | IC50 [12]: 926 pM | IC50 (mFc-tagged mouse LAG-3): 2900 pM | IC50 [13]: 1860 pM | Bmax [14]: 54 pM | Kd [14]: 460 pM | Bmax [15]: 380 pM | Kd [15]: 6300 pM | Kd [16]: 183 pM | koff [16]: 2.73e-05 s⁻¹ | kon [16]: 149000 M⁻¹ s⁻¹ | Kd [17]: 2.27 pM | koff [17]: 2.31e-06 s⁻¹ | kon [17]: 1.02e+06 M⁻¹ s⁻¹ | EC50 [18]: 2340 pM | EC50 [19]: 100 pM | EC50 [20]: 2340 pM
